# Article PMC6238616
# B1: PHF1, wild type, LUMIER fusion, O43189 Y47A (protein)
# chain: MAQPPRLSRSGASSLWDPASPAPTSGPRPRLWEGQDVLARWTDGLLALGTIKKVDSAREVCLVQFEDDSQFLVLWKDISPAALPGEELLCCVCRSETVVPGNRLVSCEKCRHAYHQDCHVPRAPAPGEGEGTSWVCRQCVFAIATKRGGALKKGPYARAMLGMKLSLPYGLKGLDWDAGHLSNRQQSYCYCGGPGEWNLKMLQCRSCLQWFHEACTQCLSKPLLYGDRFYEFECCVCRGGPEKVRRLQLRWVDVAHLVLYHLSVCCKKKYFDFDREILPFTSENWDSLLLGELSDTPKGERSSRLLSALNSHKDRFISGREIKKRKCLFGLHARMPPPVEPPTGDGALTSFPSGQGPGGGVSRPLGKRRRPEPEPLRRRQKGKVEELGPPSAVRNQPEPQEQRERAHLQRALQASVSPPSPSPNQSYQGSSGYNFRPTDARCLPSSPIRMFASFHPSASTAGTSGDSGPPDRSPLELHIGFPTDIPKSAPHSMTASSSSVSSPSPGLPRRSAPPSPLCRSLSPGTGGGVRGGVGYLSRGDPVRVLARRVRPDGSVQYLVEWGGGGIF
# Target: SMN1, wild type, LUMIER fusion, Q16637
# Assay: LUMIER
# Conditions: chain shown with the change;; parent: est. 51000; read off a plot
# SMN1, wild type, LUMIER fusion, Q16637, sequence (Q16637 whole entry, the tested form may be a part): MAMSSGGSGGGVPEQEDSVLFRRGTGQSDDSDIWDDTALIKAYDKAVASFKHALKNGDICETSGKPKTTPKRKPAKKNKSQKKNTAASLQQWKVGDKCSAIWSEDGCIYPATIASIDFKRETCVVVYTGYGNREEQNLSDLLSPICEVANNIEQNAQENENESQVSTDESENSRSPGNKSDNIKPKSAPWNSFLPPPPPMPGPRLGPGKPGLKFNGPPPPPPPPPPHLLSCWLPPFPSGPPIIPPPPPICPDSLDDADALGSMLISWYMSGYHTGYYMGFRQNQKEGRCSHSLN
binder,measurement,value
B1,response,28000 RU
